Experimental data from publication doi:10.1101/2023.04.11.536350.
“And” between values parts separate entries of the source, which are not always exact repeats. Equal values may be shown once.

How the values were obtained:
[1] = target: ErCry4a C412A (European robin (Erithacus rubecula)); assay: native MS
[2] = target: European robin cryptochrome 4a, wild type, with N-terminal 10xHis-tag (European robin (Erithacus rubecula)); assay: native MS
[3] = target: European robin cryptochrome 4a, wild type, with N-terminal 10xHis-tag (European robin (Erithacus rubecula)); assay: mass photometry
[4] = target: European robin cryptochrome 4a, wild type, with N-terminal 10xHis-tag (European robin (Erithacus rubecula)); assay: native MS; remark: listed apart in the source
[5] = target: ErCry4a C412A+C317A (European robin (Erithacus rubecula)); assay: native MS
[6] = target: ErCry4a C317A (European robin (Erithacus rubecula)); assay: native MS

## ErCry4a C412A (natural protein)
[1]
  stoichiometry N: 2 and 3

## European robin cryptochrome 4a, wild type, with N-terminal 10xHis-tag (natural protein)
[2]
  stoichiometry N: 2
[3]
  percent of counts in the dimer peak: 11%
  stoichiometry N: 2
[4]
  stoichiometry N: 3

## ErCry4a C412A+C317A (natural protein)
[5]
  stoichiometry N: 2 and 3

## ErCry4a C317A (natural protein)
[6]
  stoichiometry N: 2 and 3
